Measured values: publication PMC2954336, “Biophysical characterization of recombinant proteins: A key to higher structural genomics success” (Journal of Structural Biology, 2010)
Ends that are not written are not given here. fluorescein = fluorescein label on the N-terminus of the peptide (end-label); Me2 = dimethyl on Lys

Target: WDR5 (WD repeat domain 5) (UniProt P61964 1-334)
Experiment: fluorescence polarisation; 36 nM fluorescein-labeled peptide titrated with WDR5 from 30 nM to 30 uM; 100 mM potassium phosphate buffer pH 8, 0.01% Triton X-100; data fitted to a hyperbolic equation
Conditions: both partners purified

B1: 11-mer fluorescein-labeled histone H3 peptide dimethylated on lysine 4 (F-H3K4Me2) (peptide)
chain: fluorescein-ARTK(Me2)QTARKST
- Kd: 100 ± 9 nM
